According to paper PMC7747622:

Legend:
[1] = tested on: M-Ig of patient (monoclonal IgG kappa) (human (patient)); experiment: SPR; settings: 2 mM Mg2+; aptamer immobilized; scrambled channel subtracted; SPR: PBS, 2 mM MgCl2 (SB), 6.25-200 nM IgG, 20 ul/min, 1:1 model; ELONA: SuperBlock or ChonBlock, 0.05% Tween 20, 2 mM MgCl2, washes PBS/2 mM MgCl2/0.05% Tween …
[2] = tested on: daratumumab (anti-CD38 therapeutic mAb, IgG kappa); experiment: SPR; settings: SPR: PBS, 2 mM MgCl2 (SB), 6.25-200 nM IgG, 20 ul/min, 1:1 model; ELONA: SuperBlock or ChonBlock, 0.05% Tween 20, 2 mM MgCl2, washes PBS/2 mM MgCl2/0.05% Tween …

Row | Sequence | Kd [1] | Kd [2]
1 | GGAGGCTCTCGGGACGACGAGTGTGTCAGGTGGATGGACGGTTGGGTTGGGTAGGCAAGGATCGCTGCTGACCAGTTGAG [aptC] | 1.85 nM | 
2 | GGAGGCTCTCGGGACGACGGCGCGGCGATTTGGGGTATGGGGAGGGGGTGGGTTGGGTCCATCGCTGCTGACCAGTTGAG [aptD] |  | 2.67 nM
